The source of these data is US6495376.

One data set has as its target GST-WW-domain of Pin1 (UniProt Q13526).
Data set [1] concerns the target Pintide analogue WFYpSPFLE. Briefly: fluorescence anisotropy; low affinity site.
Data set [2] has as its target Pintide analogue WFYpSPFLE. Briefly: fluorescence anisotropy; high affinity site.
Data set [3] addresses Pintide analogue WFYpSPFLE. Briefly: fluorescence anisotropy, GST-WW-domain titrated on fluorescein-labeled peptide.
Data set [4] concerns the target Cdc25 Peptide EQPLpTPVTDL. Described as above.
For data set [5], the target named is proteins of labeled HeLa cell lysates pretreated with Ser phosphatases (CIP, PP1 and PP2A). The experiment in a line: pulldown from labeled HeLa lysates pretreated with Ser phosphatases.
For data set [6], the target named is pT231 tau peptide (SEQ ID NO: 20). Briefly: ELISA on peptide.
The target is the same in data set [7]. The experiment in a line: ELISA on peptide. This is another data set of the same source.
Data set [8] has as its target Amyloid Precursor Protein Peptide … (pT-668). The experiment in a line: ELISA on peptide.
Data set [9] deals with Pintide analogue WFYpSPFLE. Briefly: fluorescence anisotropy, fluorescein labeled Pintide; high affinity site.
Data set [10] deals with Pintide analogue WFYpSPFLE. Briefly: fluorescence anisotropy (Table 2 prints 1.0 for the WW-domain).
Data set [11] has as its target tau peptide … (pT-231), SEQ ID NO: 29. Briefly: ELISA on peptide.

Read-outs that look alike come from different tables or passages of the source.

Chain of Nedd4 WW-domain-1 (P46935 249-282): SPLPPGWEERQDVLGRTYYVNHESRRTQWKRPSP

Take “Cdc25C, in vitro translated (35S-Met), phosphorylated by Xenopus mitotic extracts”: in the data set with GST-WW-domain of Pin1, the “dephosphorylation of the bound Cdc25C by calf intestine phosphatase (CIP)” value is reported as “When mitotically phosphorylated Cdc25C was precipitated using GST beads containing Pin1 or its WW-domain, CIP failed to dephosphorylate Cdc25C”. For the substance “GST-Pin1 (from UniProt Q13526 1-163) (enzyme)”, the Kd is 13000 nM in data set [1] and 1200 nM in data set [2]. The like results for “GST-Pin1^R14A (from UniProt Q13526 1-163) (enzyme)” were, in that order, 13500 nM and 2000 nM. The like results for “GST-Pin1^S16A (from UniProt Q13526 1-163) (enzyme)” were, in that order, 10500 nM and 1200 nM. Turning to “GST-Pin1^S16E (from UniProt Q13526 1-163) (enzyme)”, in [1], the Kd was found to be 10500 nM. Turning to “GST-Pin1^S18E (from UniProt Q13526 1-163) (enzyme)”, the Kd turned out to be 12000 nM in [1] and 1000 nM in [2]. On to “GST-Pin1^W34A (from UniProt Q13526 1-163) (enzyme)”, for which, in data set [1], the Kd stood at 14000 nM. The substance “GST-Pin1^Y23A (from UniProt P08515 1-218; Q13526 1-163) (enzyme)” gave a dissociation constant Kd in data set [1] of 13500 nM. “GST-WW-domain of Pin1 (from UniProt Q13526 1-54)”: the dissociation constant Kd in data set [3] was 1000 nM; in [4] it was 2200 nM. Consider “Nedd4 WW-domain-1 (from UniProt P46935 249-282)”, for which the fold reduction of binding against untreated lysates in data set [5] came to 10 fold. Regarding “Nedd4 WW-domain-2 (from UniProt P46935 405-438)”, the Kd amounted to 10000 nM in data set [3] and 20000 nM in data set [4]. The fold reduction of binding against untreated lysates in data set [5] turned out to be 10 fold. Turning to “Pin1 (from UniProt Q13526 1-163) (enzyme)”, the Kd was found to be 25 nM in data set [6]; 40 nM in data set [7]; 11000 nM in data set [1]; 1200 nM in data set [9]; 1200 nM in data set [2]. Moreover, the Binding (OD@405 nm) in [7] was determined as 1.46 OD@405 nm; in data set [8] it was 1.81 OD@405 nm. As for “Pin1 PPIase domain (amino acids 47-163) (from UniProt Q13526 47-163) (enzyme)”, the Kd in data set [1] was found to be 15000 nM. “Pin1 WW-domain (amino acids 1-54) (from UniProt Q13526 1-54)”: the Kd stood at 1200 nM in data set [10] and 1000 nM in data set [2]. Substance “Pin1^R14A (from UniProt Q13526 1-163) (enzyme)” gave a Binding (OD@405 nm) in data set [11] of 1.3 OD@405 nm. Moreover, in [9], the Kd is 2000 nM. Take “Pin1^S16A (from UniProt Q13526 1-163) (enzyme)”: the Kd in [9] stood at 1200 nM. For “Pin1^Y23F (from UniProt Q13526 1-163) (enzyme)”, the dissociation constant (Kd) in data set [9] is 5000 nM.
